Measurements published in patent US20110135573A1, “METALLOPROTEINASE 9 AND METALLOPROTEINASE 2 BINDING PROTEINS” (DYAX CORP., priority 2009, published 2011).

Tests used:
[1] = target: mouse MMP-2 (R&D Systems #924-MP-010) (mouse) (UniProt P33434); experiment: Ki,app, enzyme inhibition assay (fluorogenic peptide substrate), small-scale sFab
[2] = target: mouse MMP-2 (R&D Systems #924-MP-010) (mouse) (UniProt P33434); experiment: Ki,app, enzyme inhibition assay (fluorogenic peptide substrate), medium-scale sFab
[3] = target: mouse MMP-2 (R&D Systems #924-MP-010) (mouse) (UniProt P33434); experiment: Ki,app, enzyme inhibition assay (fluorogenic peptide substrate), IgG

Row | Binder | Ki [1] [nM] | Ki [2] [nM] | Ki [3] [nM]
1 | M0272-H08 (Fab, V domains shown) VH: EVQLLESGGGLVQPGGSLRLSCAASGFTFSAYDMWWVRQAPGKGLEWVSVIYPSGGTTFYADSVKGRFTISRDNSKNTLYLQMNSLRAEDTAVYYCAKDRAYGDYVGWNGFDYWGQGTLVTVSS VL: DIQMTQSPATLSLSPGERATLSCRASQSISSFLAWYQQKPGQAPRLLIYDASYRATGIPARFSGSGSGTDFTLTISSLEPEDYAVYYCQQRGNWPITFGQGTRLEIK | 46 | 46 | 
2 | X0106-E04 (antibody, V domains shown) VH: EVQLLESGGGLVQPGGSLRLSCAASGFTFSQYDMWWVRQAPGKGLEWVSVIYPSGTTFYADSVKGRFTISRDNSKNTLYLQMNSLRAEDTAVYYCAKDRAYGDYVGWNGFDYWGQGTLVTVSS VL: EIVLTQSPATLSLSPGERATLSCRASQSISSFLAWYQQKPGQAPRLLIYDASYRATGIPARFSGSGSGTDFTLTISSLEPEDFAVYYCQQRGNWPITFGQGTRLEIK |  |  | 3.9
3 | M0273-B10 (Fab, V domains shown) VH: EVQLLESGGGLVQPGGSLRLSCAASGFTFSKYAMIWVRQAPGKGLEWVSWIPPSGGYTSYADSVKGRFTISRDNSKNTLYLQMNSLRAEDTAVYYCAKDRAYGDYVGWNGFDYWGQGTLVTVSS VL: DIQMTQSPATLSLSPGERATLSCRASQSISSFLAWYQQKPGQAPRLLIYDASYRATGIPARFSGSGSGTDFTLTISSLEPEDYAVYYCQQRGNWPITFGQGTRLEIK | 59 | 59 | 
4 | X0106-B02 (antibody, V domains shown) VH: EVQLLESGGGLVQPGGSLRLSCAASGFTFSWYDMWWVRQAPGKGLEWVSVIYSSGGPTFYADSVKGRFTISRDNSKNTLYLQMNSLRAEDTAVYYCAKDRAYGDYVGWNGFDYWGQGTLVTVSS VL: EIVLTQSPATLSLSPGERATLSCRASQSISSFLAWYQQKPGQAPRLLIYDASYRATGIPARFSGSGSGTDFTLTISSLEPEDFAVYYCQQRGNWPITFGQGTRLEIK |  |  | 4.2
5 | M0273-C10 (Fab, V domains shown) VH: EVQLLESGGGLVQPGGSLRLSCAASGFTFSFYPMWWVRQAPGKGLEWVSYIYPSGGATFYADSVKGRFTISRDNSKNTLYLQMNSLRAEDTAVYYCAKDRAYGDYVGWNGFDYWGQGTLVTVSS VL: DIQMTQSPATLSLSPGERATLSCRASQSISSFLAWYQQKPGQAPRLLIYDASYRATGIPARFSGSGSGTDFTLTISSLEPEDYAVYYCQQRGNWPITFGQGTRLEIK | 18 | 18 | 
6 | X0106-C03 (antibody, V domains shown) VH: EVQLLESGGGLVQPGGSLRLSCAASGFTFSVYDMWWVRQAPGKGLEWVSVIYPSGGATYYADSVKGRFTISRDNSKNTLYLQMNSLRAEDTAVYYCAKDRAYGDYVGWNGFDYWGQGTLVTVSS VL: EIVLTQSPATLSLSPGERATLSCRASQSISSFLAWYQQKPGQAPRLLIYDASYRATGIPARFSGSGSGTDFTLTISSLEPEDFAVYYCQQRGNWPITFGQGTRLEIK |  |  | 3.2
7 | M0273-G07 (Fab, V domains shown) VH: EVQLLESGGGLVQPGGSLRLSCAASGFTFSHYDMWWVRQAPGKGLEWVSVIYPSGGPTYYADSVKGRFTISRDNSKNTLYLQMNSLRAEDTAVYYCAKDRAYGDYVGWNGFDYWGQGTLVTVSS VL: DIQMTQSPATLSLSPGERATLSCRASQSISSFLAWYQQKPGQAPRLLIYDASYRATGIPARFSGSGSGTDFTLTISSLEPEDYAVYYCQQRGNWPITFGQGTRLEIK | 22 | 22 | 
8 | M0256-D11 (Fab, V domains shown) VH: EVQLLESGGGLVQPGGSLRLSCAASGFTFSHYDMWWVRQAPGKGLEWVSVIYSSGGPTFYADSVKGRFTISRDNSKNTLYLQMNSLRAEDTAVYYCAKDRAYGDYVGWNGFDYWGQGTLVTVSS VL: DIQMTQSPATLSLSPGERATLSCRASQSISSFLAWYQQKPGQAPRLLIYDASYRATGIPARFSGSGSGTDFTLTISSLEPEDYAVYYCQQRGNWPITFGQGTRLEIK | 4.2 | 4.2 | 
9 | M0273-A11 (Fab, V domains shown) VH: EVQLLESGGGLVQPGGSLRLSCAASGFTFSRYDMWWVRQAPGKGLEWVSVISPSGGATFYADSVKGRFTISRDNSKNTLYLQMNSLRAEDTAVYYCAKDRAYGDYVGWNGFDYWGQGTLVTVSS VL: DIQMTQSPATLSLSPGERATLSCRASQSISSFLAWYQQKPGQAPRLLIYDASYRATGIPARFSGSGSGTDFTLTISSLEPEDYAVYYCQQRGNWPITFGQGTRLEIK | 32 | 32 | 
10 | X0106-F05 (antibody, V domains shown) VH: EVQLLESGGGLVQPGGSLRLSCAASGFTFSLYDMWWVRQAPGKGLEWVSVIYSSGGYTGYADSVKGRFTISRDNSKNTLYLQMNSLRAEDTAVYYCAKDRAYGDYVGWNGFDYWGQGTLVTVSS VL: EIVLTQSPATLSLSPGERATLSCRASQSISSFLAWYQQKPGQAPRLLIYDASYRATGIPARFSGSGSGTDFTLTISSLEPEDFAVYYCQQRGNWPITFGQGTRLEIK |  |  | 3

Results, then the binder that gave them:

Row | Ki [1] [nM] | Ki [2] [nM] | Ki [3] [nM] | Binder
11 | 25 | 25 |  | M0301-D12 (Fab, V domains shown) VH: EVQLLESGGGLVQPGGSLRLSCAASGFTFSMYDMWWVRQAPGKGLEWVSVIYSSGGYTSYADSVKGRFTISRDNSKNTLYLQMNSLRAEDTAVYYCAKDRAYGDYVGWNGFDYWGQGTLVTVSS VL: DIQMTQSPATLSLSPGERATLSCRASQSISSFLAWYQQKPGQAPRLLIYDASYRATGIPARFSGSGSGTDFTLTISSLEPEDYAVYYCQQRGNWPITFGQGTRLEIK
12 | 2.7 | 2.7 |  | M0274-G08 (Fab, V domains shown) VH: EVQLLESGGGLVQPGGSLRLSCAASGFTFSVYDMWWVRQAPGKGLEWVSVIYPSGGATYYADSVKGRFTISRDNSKNTLYLQMNSLRAEDTAVYYCAKDRAYGDYVGWNGFDYWGQGTLVTVSS VL: DIQMTQSPATLSLSPGERATLSCRASQSISSFLAWYQQKPGQAPRLLIYDASYRATGIPARFSGSGSGTDFTLTISSLEPEDYAVYYCQQRGNWPITFGQGTRLEIK
13 | 21 | 21 |  | M0301-A09 (Fab, V domains shown) VH: EVQLLESGGGLVQPGGSLRLSCAASGFTFSYYDMWWVRQAPGKGLEWVSVIYPSGGYTAYADSVKGRFTISRDNSKNTLYLQMNSLRAEDTAVYYCAKDRAYGDYVGWNGFDYWGQGTLVTVSS VL: DIQMTQSPATLSLSPGERATLSCRASQSISSFLAWYQQKPGQAPRLLIYDASYRATGIPARFSGSGSGTDFTLTISSLEPEDYAVYYCQQRGNWPITFGQGTRLEIK
14 | 15 | 15 |  | M0275-E12 (Fab, V domains shown) VH: EVQLLESGGGLVQPGGSLRLSCAASGFTFSHYDMWWVRQAPGKGLEWVSVIYSSGGFTGYADSVKGRFTISRDNSKNTLYLQMNSLRAEDTAVYYCAKDRAYGDYVGWNGFDYWGQGTLVTVSS VL: DIQMTQSPATLSLSPGERATLSCRASQSISSFLAWYQQKPGQAPRLLIYDASYRATGIPARFSGSGSGTDFTLTISSLEPEDYAVYYCQQRGNWPITFGQGTRLEIK
15 | 2.2 | 2.2 |  | M0307-F04 (Fab, V domains shown) VH: EVQLLESGGGLVQPGGSLRLSCAASGFTFSLYDMWWVRQAPGKGLEWVSVIYSSGGYTGYADSVKGRFTISRDNSKNTLYLQMNSLRAEDTAVYYCAKDRAYGDYVGWNGFDYWGQGTLVTVSS VL: DIQMTQSPATLSLSPGERATLSCRASQSISSFLAWYQQKPGQAPRLLIYDASYRATGIPARFSGSGSGTDFTLTISSLEPEDYAVYYCQQRGNWPITFGQGTRLEIK
16 | 3.7 | 3.7 |  | M0276-F11 (Fab, V domains shown) VH: EVQLLESGGGLVQPGGSLRLSCAASGFTFSWYDMWWVRQAPGKGLEWVSVIYSSGGPTFYADSVKGRFTISRDNSKNTLYLQMNSLRAEDTAVYYCAKDRAYGDYVGWNGFDYWGQGTLVTVSS VL: DIQMTQSPATLSLSPGERATLSCRASQSISSFLAWYQQKPGQAPRLLIYDASYRATGIPARFSGSGSGTDFTLTISSLEPEDYAVYYCQQRGNWPITFGQGTRLEIK
17 | 5.4 | 5.4 |  | M0275-D03 (Fab, V domains shown) VH: EVQLLESGGGLVQPGGSLRLSCAASGFTFSQYDMWWVRQAPGKGLEWVSVIYPSGTTFYADSVKGRFTISRDNSKNTLYLQMNSLRAEDTAVYYCAKDRAYGDYVGWNGFDYWGQGTLVTVSS VL: DIQMTQSPATLSLSPGERATLSCRASQSISSFLAWYQQKPGQAPRLLIYDASYRATGIPARFSGSGSGTDFTLTISSLEPEDYAVYYCQQRGNWPITFGQGTRLEIK
18 | 30 | 30 |  | M0299-A12 (Fab, V domains shown) VH: EVQLLESGGGLVQPGGSLRLSCAASGFTFSHYPMWWVRQAPGKGLEWVSYISSSGGGTFYADSVKGRFTISRDNSKNTLYLQMNSLRAEDTAVYYCAKDRAYGDYVGWNGFDYWGQGTLVTVSS VL: DIQMTQSPATLSLSPGERATLSCRASQSISSFLAWYQQKPGQAPRLLIYDASYRATGIPARFSGSGSGTDFTLTISSLEPEDYAVYYCQQRGNWPITFGQGTRLEIK
19 |  |  | 76 | 539A-M0237-D02 hIgG1 (antibody, V domains shown) VH: EVQLLESGGGLVQPGGSLRLSCAASGFTFSQYPMWWVRQAPGKGLEWVSYIVPSGGRTYYADSVKGRFTISRDNSKNTLYLQMNSLRAEDTAVYYCAKDRAYGDYVGWNGFDYWGQGTLVTVSS VL: DIQMTQSPATLSLSPGERATLSCRASQSISSFLAWYQQKPGQAPRLLIYDASYRATGIPARFSGSGSGTDFTLTISSLEPEDYAVYYCQQRGNWPITFGQGTRLEIK
